From PMC9672406 (The Journal of Biological Chemistry, 2022) come the findings set out here.

This data set deals with the molecule itself. The data set can be described thus: AUC.

B1: MqnA from Streptomyces coelicolor (chorismate dehydratase), wild type (enzyme)
chain: DNSRTRPRVGHIQFLNCLPLYWGLARTGTLLDFELTKDTPEKLSEQLVRGDLDIGPVTLVEFLKNADDLVAFPDIAVGCDGPVMSCVIVSQVPLDRLDGARVALGSTSRTSVRLAQLLLSERFGVQPDYYTCPPDLSLMMQEADAAVLIGDAALRANMIDGPRYGLDVHDLGALWKEWTGLPFVFAVWAARRDYAEREPVITRKVHEAFLASRNLSLEEVEKVAEQAARWEAFDEDTLAKYFTTLDFRFGAPQLEAVTEFARRVGPTTGFPADVKVELLKP
One may read the stoichiometry N as a count of units in the complex or per binding partner. Turning to B1, the “stoichiometry N” value is 2.
